Substitutions are numbered along the chain they refer to. In names and notes the source's numbering stands.
Key:
[1] = biological target: T1, UV … LOCUS 8 (UVR8), wild-type, purified (Arabidopsis thaliana), Q9FN03; assay: SDS-PAGE with non-boiled samples; purified protein not exposed to UV-B; 10% gel, Coomassie stain; dimer to monomers; conditions: remark: other sources report otherwise
T1 chain: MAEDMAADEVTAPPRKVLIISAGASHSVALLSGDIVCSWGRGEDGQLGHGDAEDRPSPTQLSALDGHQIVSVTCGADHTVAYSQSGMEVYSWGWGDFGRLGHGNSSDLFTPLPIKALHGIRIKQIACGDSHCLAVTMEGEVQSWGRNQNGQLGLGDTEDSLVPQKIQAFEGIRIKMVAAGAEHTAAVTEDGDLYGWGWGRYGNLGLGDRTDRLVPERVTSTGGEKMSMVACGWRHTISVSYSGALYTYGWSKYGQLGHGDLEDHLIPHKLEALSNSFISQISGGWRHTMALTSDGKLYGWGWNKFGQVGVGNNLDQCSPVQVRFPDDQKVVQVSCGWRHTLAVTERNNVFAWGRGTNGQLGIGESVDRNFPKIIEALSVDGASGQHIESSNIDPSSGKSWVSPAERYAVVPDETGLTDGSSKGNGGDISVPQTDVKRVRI

[2] = biological target: the molecule itself; assay: as above
[3] = biological target: the molecule itself; assay: SDS-PAGE with non-boiled samples; protein extracts of 14-day-old plants not exposed to UV-B (also after return to white light following UV-B, re-dimerization); immunoblot with anti-UVR8-C; dimer to monomers

B1: UV … LOCUS 8 (UVR8), wild-type, purified, Q9FN03 1-440 (natural protein)
chain: T1 chain
B1 was tested, and the stoichiometry N [1] was 2.

B2: UVR8^C231S,C335S, purified (natural protein, Arabidopsis thaliana, UniProt Q9FN03 1-440, looked up)
chain: T1 chain with C231S, C335S
notes: UVR8, Arabidopsis thaliana, with C231S and C335S; also called UVR8^SS; source: E. coli, purified (as detailed by Christie et al., 2012)
In the case of B2, the “stoichiometry N” value [2] is reported as 2.

B3: GFP-UVR8^C231S,C335S (uvr8-1/35Spro:GFP-UVR8^C231S,C335S plants) (natural protein, Arabidopsis thaliana, UniProt Q9FN03 1-440, looked up)
chain: T1 chain with C231S, C335S
notes: UVR8, Arabidopsis thaliana, with C231S and C335S; Cloned into the pEZR(K)L-C vector by the methods of Cloix et al. (2012); also called GFP-UVR8^SS; source: transgenic Arabidopsis uvr8-1/CaMV35Spro:GFP-UVR8^C231S,C335S, in protein extract
In the case of B3, the “stoichiometry N” value [3] is reported as 2.

Source: PMC9546227, “Cysteines have a role in conformation of the UVR8 photoreceptor” (The Plant Journal, 2022)
